T1: Cynomolgus Monkey VSIG4-L-His (cynomolgus monkey)
T1 construct: ECD with His tag; also called cyVSIG4-L; cyno VSIG4-L-His
T1 chain: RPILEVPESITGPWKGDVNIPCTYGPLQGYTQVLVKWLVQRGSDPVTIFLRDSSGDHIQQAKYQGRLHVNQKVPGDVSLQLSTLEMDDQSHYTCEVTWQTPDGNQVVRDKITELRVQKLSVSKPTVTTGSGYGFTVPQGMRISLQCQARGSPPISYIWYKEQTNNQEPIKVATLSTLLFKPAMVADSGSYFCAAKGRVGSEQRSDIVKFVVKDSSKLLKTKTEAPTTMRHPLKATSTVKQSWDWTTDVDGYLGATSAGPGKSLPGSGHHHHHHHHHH

T2: Human VSIG4-L-His (human, UniProt Q9Y279 20-283)
T2 construct: long isoform ECD with His tag; also called hVSIG4-L
T2 sequence: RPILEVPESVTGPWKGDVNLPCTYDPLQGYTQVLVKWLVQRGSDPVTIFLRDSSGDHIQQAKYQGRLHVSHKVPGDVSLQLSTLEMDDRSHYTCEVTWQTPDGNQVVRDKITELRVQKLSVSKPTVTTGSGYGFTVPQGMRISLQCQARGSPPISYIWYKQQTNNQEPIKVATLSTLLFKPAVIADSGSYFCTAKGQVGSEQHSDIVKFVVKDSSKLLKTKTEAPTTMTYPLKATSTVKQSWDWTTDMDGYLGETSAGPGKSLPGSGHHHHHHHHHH


Key:
[1] = molecular target: T3, Human VSIG4-L-Fc (human); test: blocking ELISA, biotin-C3b on coated hVSIG4-L-Fc
T3 construct: also called hVSIG4-L-Fc; hVSIG4-L
Protocol: (§1) Coated microplates were blocked with casein (Sigma-Aldrich, St. Louis, MO) at 1% in PBS. […] One hundred ill of the mixed sample was added onto the coated wells and incubated for one hour at room temperature. […] OD at 450 nm was determined using a standard absorbance microplate reader.

[2] = molecular target: T3, Human VSIG4-L-Fc; test: blocking ELISA, biotin-iC3b on coated hVSIG4-L-Fc
Target sequence in this assay (chain, as listed by the source limits assumed): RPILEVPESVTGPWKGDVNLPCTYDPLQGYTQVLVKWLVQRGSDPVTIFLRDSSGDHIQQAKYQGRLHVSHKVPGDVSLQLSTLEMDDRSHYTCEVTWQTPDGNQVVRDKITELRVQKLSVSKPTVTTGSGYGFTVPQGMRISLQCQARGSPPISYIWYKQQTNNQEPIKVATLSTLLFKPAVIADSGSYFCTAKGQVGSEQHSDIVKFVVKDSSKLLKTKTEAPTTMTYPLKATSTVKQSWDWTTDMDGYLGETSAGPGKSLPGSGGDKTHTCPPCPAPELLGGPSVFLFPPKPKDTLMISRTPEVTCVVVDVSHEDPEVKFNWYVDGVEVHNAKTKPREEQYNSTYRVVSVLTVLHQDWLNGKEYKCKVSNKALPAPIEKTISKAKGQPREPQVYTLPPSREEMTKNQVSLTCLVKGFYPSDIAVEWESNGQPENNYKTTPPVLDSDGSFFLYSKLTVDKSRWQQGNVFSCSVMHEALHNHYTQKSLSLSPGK
Protocol: as §1

[3] = molecular target: T4, Human VSIG4-S-Fc (human); test: ELISA, Fab P.E. 1:5 on coated antigen;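 also: mouse Fab P.E. samples in 1% skimmed milk PBS, bound to antigen-coated wells for 1 h at room temperature, read as absorbance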
T4 construct: short isoform ECD fused to human Fc1; also called hVSIG4-S
Protocol: (§2) Coated microplates were blocked with dried skimmed milk at 4% in PBS. P.E. samples of the mouse unique Fab sequences were diluted 1:5 in assay buffer (1% dried skimmed milk in PBS), and 100 μl of diluted sample was added onto the coated wells and incubated for one hour at room temperature. […] Optical density (OD) at 450 nm was determined using a standard absorbance microplate reader.

[4] = molecular target: T1, Cynomolgus Monkey VSIG4-L-His; test: ELISA, Fab P.E. 1:5 on coated antigen;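 also: mouse Fab P.E. samples in 1% skimmed milk PBS, bound to antigen-coated wells for 1 h at room temperature, read as absorbance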
Protocol: as §2

[5] = molecular target: T3, Human VSIG4-L-Fc; test: ELISA, Fab P.E. 1:5 on coated antigen;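 also: mouse Fab P.E. samples in 1% skimmed milk PBS, bound to antigen-coated wells for 1 h at room temperature, read as absorbance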
Protocol: as §2

[6] = molecular target: T2, Human VSIG4-L-His; test: SPR (Biacore T200), Fab P.E. 1:5 over immobilised antigen
Protocol: Off-rate values of the mouse unique Fab clones were determined using surface plasmon resonance (SPR) in Biacore™ T200 equipment (GE Healthcare, Chicago, IL). […] The immobilization was performed in accordance with a method provided by Biacore and by using the NHS/EDC kit (GE Healthcare, Chicago, IL). […] Sixty μl of Fab P.E. samples, diluted 1:5 in HBS-EP+ assay buffer (0.1 M HEPES, 1.5 M NaCl, 0.03 M EDTA and 0.5% v/v Surfactant P20), were injected and passed through the flow cells at a flow rate of 30 μl/min. After binding of the samples to VSIG4 protein, the off-rate was monitored for a period of five minutes. The flow cell surface was regenerated by a double injection of 10 μl of 1 mM glycine at pH 1.5 in 1 M sodium chloride at 30 μl/min. Off-rate analysis was done using the BIAevaluation software (GE Healthcare, Chicago, IL) and using a 1:1 dissociation kinetic fit curve.

T4 sequence (chain, as listed by the source limits assumed): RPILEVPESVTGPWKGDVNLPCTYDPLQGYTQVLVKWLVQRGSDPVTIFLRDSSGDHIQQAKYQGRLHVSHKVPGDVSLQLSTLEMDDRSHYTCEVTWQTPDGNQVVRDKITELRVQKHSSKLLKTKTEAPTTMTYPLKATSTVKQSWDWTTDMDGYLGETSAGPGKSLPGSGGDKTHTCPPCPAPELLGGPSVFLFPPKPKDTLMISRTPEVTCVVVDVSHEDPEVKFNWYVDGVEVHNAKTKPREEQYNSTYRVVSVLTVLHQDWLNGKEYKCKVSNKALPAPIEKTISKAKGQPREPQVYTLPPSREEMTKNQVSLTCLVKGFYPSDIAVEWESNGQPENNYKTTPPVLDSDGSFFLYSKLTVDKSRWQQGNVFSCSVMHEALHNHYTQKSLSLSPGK

Binder	Percent Blocking C3b [1] [%]	Percent Blocking iC3b [2] [%]	ELISA OD450 [3] [OD450]	ELISA OD450 [4] [OD450]	ELISA OD450 [5] [OD450]	koff [6] [s⁻¹]
14C05 mouse Fab (periplasmic extract) (Fab, V domains shown, mouse Fab with C-terminal His6-c-myc tag) VH: EVMLVESGPELKKPGETVKISCKASGYTFTNYGMNWVKQAPGKGLKWMGSINTYTGEATYADDFKGRFAFSLETSANTAYLQIDNLKNEDTATYFCARGDYYGRGTWFAYWGQGTLVTVSA VL: ETTVTQSHKFMSTSVGDRVSITCKASQDVSTAVAWYQQKPGQSPKLLIYSASYRYPGVPDRFTGSGSGTDFTFTISSVQAEDLAVYYCQQDYSSPWTFGGGTKLEIK	88.8	88.7	4.32	4.37	4.33	0.00037
14D12 mouse Fab (periplasmic extract) (Fab, V domains shown, mouse Fab with C-terminal His6-c-myc tag) VH: QIQLVQSGPELKKPGETVKISCKASGYTFTNYGMNWVKQTPGKGLKWMGLINTYTGEPTYADDFKGRFAFSLETSASTAYLQINNLKNEDMATYFCARERIYGYLHYFDYWGQGTTLTVSS VL: DVVMTQTPASLAVSLGQRATISCKASQSVDYDGDSYMNWYQQKPGQPPKLLIYAASNLESGIPARFSGSGSGTDFTLNIHPVEEEDAATYYCQQSNEDPRTFGGGTKLEIK	70.3	56	4.18	4.32	4.32	0.0063
16E10 mouse Fab (periplasmic extract) (Fab, V domains shown, mouse Fab with C-terminal His6-c-myc tag) VH: QVQLQQSGAELVRPGTSVKISCKASGYTFTNYWLGWVKQRPGHGLEWIGDIYPGGGYTNYNEKFKGKATLTADTSSSTAYMQLSSLTSEDSAVYFCAKFYYYGSSYYFDSWGQGTTLTVSS VL: DIVLTQSPSSLSVSAGEKVTLSCKSSQSLLNSGNQENYLAWYQQKPGQPPKLLIYGASTRESGVPDRFTGSGSGTDFTLTISSVQAEDLAVYYCQNDHSYPLTFGAGTKLELK	7.1	7.6	1.32	1.88	1.86	0.025

— US20230348603A1 (VERSEAU THERAPEUTICS, published 2023)
